Results on one protein are retold here after publication doi:10.1101/431288 (bioRxiv, 2018).

The series concerns the molecule itself. Put plainly: cryo-EM structure.

B1: human butyrylcholinesterase (HuBChE), native glycosylated enzyme purified from plasma (enzyme, UniProt P06276 29-602, looked up)
chain: EDDIIIATKNGKVRGMNLTVFGGTVTAFLGIPYAQPPLGRLRFKKPQSLTKWSDIWNATKYANSCCQNIDQSFPGFHGSEMWNPNTDLSEDCLYLNVWIPAPKPKNATVLIWIYGGGFQTGTSSLHVYDGKFLARVERVIVVSMNYRVGALGFLALPGNPEAPGNMGLFDQQLALQWVQKNIAAFGGNPKSVTLFGESAGAASVSLHLLSPGSHSLFTRAILQSGSFNAPWAVTSLYEARNRTLNLAKLTGCSRENETEIIKCLRNKDPQEILLNEAFVVPYGTPLSVNFGPTVDGDFLTDMPDILLELGQFKKTQILVGVNKDEGTAFLVYGAPGFSKDNNSIITRKEFQEGLKIFFPGVSEFGKESILFHYTDWVDDQRPENYREALGDVVGDYNFICPALEFTKKFSEWGNNAFFYYFEHRSSKLPWPEWMGVMHGYEIEFVFGLPLERRDNYTKAEEILSRSIVKRWANFAKYGNPNETQNNSTSWPVFKSTEQKYLTLNTESTRIMTKLRAQQCRFWTSFFPKVLEMTGNIDEAEWEWKAGFHRWNNYMMDWKNQFNDYTSKKESCVGL
notes: also called native BChE tetramer
A word on the stoichiometry N: it is the number of molecules, sites or subunits per partner or assembly. Take B1: the “stoichiometry N” value worked out at 4.
